From the Human Domainome abundance scans (Beltran et al. 2025)

B1: Chromodomain-helicase-DNA-binding protein 5, residues 338 to 390; numbered along this chain, Q8TDI0 (parent)
chain: YETDHQDYCEVCQQGGEIILCDTCPRAYHLVCLDPELEKAPEGKWSCPHCEKE

Variants of: B1
Assay: abundance fitness (aPCA) (normalised: wild type 0, dead -1); higher = more abundant; growth selection in yeast, the domain comes from the species named
Details: Homo sapiens

Abundance fitness, by site and new letter:
Y1: D -0.839; E 0.321; F -0.041; G 0.239; K 0.125; N -0.336; R 0.063; S -0.481; V 0.159; W 0.122
E2: A -0.071; C 0.423; F 0.018; G 0.072; H 0.022; I 0.814; K 0.529; L 0.287; M 0.789; N 0.405; P -0.175; R 0.267; S 0.451; T 0.488; V -0.484; W -0.092
T3: A 0.098; C -0.267; D 0.023; E 0.268; F 0.275; G 0.342; H -0.407; I 0.465; K 0.264; M 0.567; N -0.37; Q 0.05; R 0.119; S 0.077; V 0.027; W 0.236; Y 0.171
D4: A 0.244; C 0.128; E 0.081; F 0.04; G 0.001; H -0.056; I 0.03; K 0.073; L 0.095; M 0.627; N 0.106; P -0.049; Q 0.368; R 0.054; T -0.008; V 0.117; W -0.014; Y -0.337
H5: A 0.488; C 0.394; D -0.81; E 0.024; F -0.144; G 0.185; I 0.079; K 0.021; L 0.375; M 0.497; N -0.072; P 0.124; Q -0.046; R 0.192; S 0.293; T 0.116; V 0.464; W -0.038
Q6: A 0.193; C -0.153; D -0.199; E -0.186; F -0.234; G -0.313; H -0.286; L -0.286; P 0.25; R -0.183; S -0.047; V -0.199; W -0.421; Y -0.422
D7: A -0.045; C -0.669; E -0.255; F -0.725; G -0.252; H -0.296; I -0.317; K -0.313; L -0.527; M 0.167; N -0.129; Q 0.176; R -0.154; S -0.257; T 0.112; V 0.096; W -0.613; Y -0.676
Y8: A 0.142; C -0.337; D -0.199; E 0.306; F -0.204; G 0.078; H 0.349; I 0.241; K -0.067; L 0.06; M 0.102; N 0.227; P 0.33; Q 0.437; R 0.211; S 0.014; T -0.088; V 0.054; W -0.111
C9: A -0.726; D -0.618; E -0.611; F -1.18; G -0.593; H -0.397; I -0.774; K -0.804; L -0.844; M -0.803; N -0.764; P -0.558; Q -1.04; R -0.752; S -0.809; T -0.643; V -1.07; W -1.08; Y -0.489
E10: A -0.064; C -0.001; D -0.14; F 0.256; G 0.015; H -0.394; I 0.188; K 0.2; L 0.175; M -0.07; N 0.338; Q 0.024; R 0.043; S -0.112; T -0.004; W 0.234; Y 0.209
V11: A 0.095; C 0.179; D 0.018; E 0.397; G 0.376; H 0.691; K 0.481; L 0.245; M 0.459; N -0.013; P 0.061; S 0.27; T 0.341; W -0.038; Y 0.033
C12: A -0.688; E -0.866; F -0.788; G -0.752; H -0.539; I -0.912; K -0.652; L -0.901; M -0.671; N -0.318; P -0.901; Q -0.79; R -1; S -1.04; T -0.776; V -0.759; W -1.02; Y -0.891
Q13: A -0.034; C -0.076; D -0.191; E -0.091; F -0.258; G 0.18; H -0.268; I -0.204; K -0.233; L -0.109; M 0.002; N 0.029; P -0.097; R 0.163; S 0.157; T -0.185; V 0.056; W -0.104; Y -0.198
Q14: A -0.093; C -0.378; D -0.004; F -0.295; G 0.118; H -0.105; I -0.385; L -0.011; M 0.084; N -0.065; P -1.04; R -0.019; S 0; T 0.193; V -0.107; W -0.237; Y -0.001
G15: A 0.176; C 0.021; D -0.167; E -0.112; I -0.414; K 0.155; L -0.209; M 0.143; N 0.116; P -0.553; Q -0.103; R 0.141; T -0.014; V -0.143; W -0.136; Y 0.083
G16: A -0.037; C -0.336; E 0.027; H 0.435; I -0.195; L 0.239; M 0.255; N 0.259; Q 0.183; R 0.098; S 0.114; T 0.265; V -0.17; Y 0.193
E17: C -0.105; D -0.182; F -0.213; G -0.07; H -0.435; I 0.227; K 0.105; L -0.096; M 0.1; N 0.2; P -0.445; Q -0.377; R -0.189; S -0.354; T -0.109; V -0.358; W 0.188
I18: A 0.177; C -0.508; D -0.172; E -0.454; F -0.058; G 0.047; H 0.03; K 0.137; L -0.098; M 0.007; N 0.039; P -0.228; Q 0.28; R 0.021; S 0.065; T 0.021; V -0.286; W -0.02; Y 0.145
I19: A 0.109; C -0.137; D -0.023; E -0.056; F 0.051; G -0.177; H 0.128; K 0.315; L 0.121; M 0.256; N 0.161; P -1.07; Q 0.029; R 0.115; S -0.104; T 0.303; V -0.085; Y -0.226
L20: A 0.139; D 0.127; E -0.119; F 0.078; G 0.297; H 0.224; I -0.095; K 0.099; M 0.371; N 0.091; P 0.234; Q 0.414; R 0.266; S 0.233; T 0.258
